# Measured values published in patent US20150071985A1 (HAEMOSTATIX, published 2015).
# Where no end group is shown, it is not given here.
# T1: human fibrinogen (human, UniProt P02671 20-629; P02675 31-491; P02679 27-437, limits assumed)
# T1 construct: also called purified human fibrinogen
# T1 sequence (looked up) 1: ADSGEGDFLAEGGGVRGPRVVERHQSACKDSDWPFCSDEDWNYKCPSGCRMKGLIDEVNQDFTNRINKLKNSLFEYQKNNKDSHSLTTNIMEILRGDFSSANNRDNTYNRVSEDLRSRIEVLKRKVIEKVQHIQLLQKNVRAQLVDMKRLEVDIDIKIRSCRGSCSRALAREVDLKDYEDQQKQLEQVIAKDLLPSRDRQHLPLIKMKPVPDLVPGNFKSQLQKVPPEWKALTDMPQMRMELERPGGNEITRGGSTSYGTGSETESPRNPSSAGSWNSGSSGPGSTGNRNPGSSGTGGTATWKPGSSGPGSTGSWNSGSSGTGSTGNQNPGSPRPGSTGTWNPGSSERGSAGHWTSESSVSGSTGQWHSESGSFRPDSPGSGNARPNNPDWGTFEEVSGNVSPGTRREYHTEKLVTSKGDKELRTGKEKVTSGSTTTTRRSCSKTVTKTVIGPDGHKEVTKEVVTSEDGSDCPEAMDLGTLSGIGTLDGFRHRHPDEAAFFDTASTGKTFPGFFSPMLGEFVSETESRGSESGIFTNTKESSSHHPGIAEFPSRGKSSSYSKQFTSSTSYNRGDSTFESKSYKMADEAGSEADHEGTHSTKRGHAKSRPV
# T1 sequence (looked up) 2: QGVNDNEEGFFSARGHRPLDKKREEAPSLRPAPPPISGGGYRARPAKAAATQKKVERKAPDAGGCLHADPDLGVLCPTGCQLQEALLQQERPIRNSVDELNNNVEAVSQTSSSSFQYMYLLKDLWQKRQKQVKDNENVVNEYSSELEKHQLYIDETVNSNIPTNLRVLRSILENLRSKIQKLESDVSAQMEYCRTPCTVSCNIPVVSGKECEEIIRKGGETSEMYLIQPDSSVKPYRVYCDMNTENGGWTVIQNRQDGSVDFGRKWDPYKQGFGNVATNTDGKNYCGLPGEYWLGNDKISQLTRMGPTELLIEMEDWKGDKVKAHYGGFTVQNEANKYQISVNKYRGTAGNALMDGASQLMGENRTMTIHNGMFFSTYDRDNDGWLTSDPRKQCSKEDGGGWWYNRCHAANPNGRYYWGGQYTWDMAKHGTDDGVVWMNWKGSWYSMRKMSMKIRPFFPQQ
# T1 sequence (looked up) 3: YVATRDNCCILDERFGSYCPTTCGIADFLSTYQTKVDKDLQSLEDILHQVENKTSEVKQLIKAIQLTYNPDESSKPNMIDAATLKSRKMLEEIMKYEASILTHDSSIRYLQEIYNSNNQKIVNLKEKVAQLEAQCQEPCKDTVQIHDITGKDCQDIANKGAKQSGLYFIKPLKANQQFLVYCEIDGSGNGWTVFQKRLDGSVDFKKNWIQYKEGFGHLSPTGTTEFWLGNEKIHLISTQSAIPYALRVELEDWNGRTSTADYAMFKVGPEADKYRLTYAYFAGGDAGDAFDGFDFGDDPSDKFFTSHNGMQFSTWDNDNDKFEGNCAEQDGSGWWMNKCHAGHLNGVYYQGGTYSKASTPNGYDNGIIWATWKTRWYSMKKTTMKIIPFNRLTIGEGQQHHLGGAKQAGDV
# Columns and labels:
# [1] = biological target: human fibrinogen (human) (UniProt P02671); assay: cell-based or functional assay
# [2] = biological target: T1, human fibrinogen; assay: flow cytometry; peptide-albumin microparticles incubated with fluorescent fibrinogen
"Clotting activity (time to clot formation, Sigma Amelung KC4 coagulometer; 30 µL sample at 0.5 mg/ml added to 100 µL purified human fibrinogen at 3 mg/ml) [1]",binding result [2],Molecule
< 6 s,,PeproStat (GPRPG-PEG12-maleimide conjugated to thiolated human serum albumin) (from UniProt P02768 25-609)
,binds,"GPRPG (also: conjugated to albumin microparticles, linker and chemistry not given here, Surrogate of PeproStat for the flow cytometry test; also called the particles; not shown: The albumin microparticle carrier) [GPRPG peptide conjugated to albumin microparticles]"
